In US20250340654A1 (INTERVET, published 2025):

T1: Canine IL-31RA ECD-10His (canine, biotin-labeled in the Octet assay (site not stated))
T1 construct: The ELISA and Octet protocols say only 'IL-31RA' or 'canine IL-31RA'; also called cIL-31RA; canine IL-31 receptor alpha extracellular domain, HIS-tagged
T1 chain: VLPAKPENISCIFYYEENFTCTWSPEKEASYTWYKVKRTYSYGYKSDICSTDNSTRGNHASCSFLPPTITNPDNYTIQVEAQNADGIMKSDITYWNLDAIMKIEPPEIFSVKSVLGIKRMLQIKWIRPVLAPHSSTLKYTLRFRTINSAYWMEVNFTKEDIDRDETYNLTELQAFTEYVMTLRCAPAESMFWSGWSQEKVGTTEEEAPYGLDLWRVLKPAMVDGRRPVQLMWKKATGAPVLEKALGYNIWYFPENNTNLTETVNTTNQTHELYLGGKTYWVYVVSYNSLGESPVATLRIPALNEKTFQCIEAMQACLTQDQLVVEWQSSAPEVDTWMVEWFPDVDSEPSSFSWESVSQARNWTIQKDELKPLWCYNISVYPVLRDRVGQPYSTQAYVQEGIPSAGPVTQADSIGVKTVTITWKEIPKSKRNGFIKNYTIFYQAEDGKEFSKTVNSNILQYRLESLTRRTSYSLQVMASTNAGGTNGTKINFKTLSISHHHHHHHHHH


Columns and labels:
[1] = molecular target: T2, canine IL-31 receptor complex (IL-31RA and OSMR) on Ba/f3-OI cells (canine); experiment: cell-based or functional assay
[2] = molecular target: T1, Canine IL-31RA ECD-10His; experiment: BLI (Octet HTX), biotin-labeled canine IL-31RA on SA biosensors, 1:1 fit
Method: These constants reflect the binding affinity of the individual monoclonal antibodies for canine IL-31 RA.
(§1) All kinetics measurements were performed by Octet HTX using SA biosensors and Data Acquisition 12.0 software. A biotin-labeled antigen (canine IL-31RA) was loaded onto the pre-rehydrated SA biosensors for 120s at a concentration of 1 μg/mL. Next, the biosensors were placed into Octet Kinetics Buffer (PBS+0.02% Tween 20, 0.1% BSA) for the blocking phase for 120s. Then, for the association phase, antigen loaded biosensors were placed into 2-fold serial dilutions from 100 nM down to 3.13 nM of anti-IL-31RA monoclonal antibody in Octet Kinetics Buffer for 300s. The last well was buffer alone and that sensor was used for reference sensor subtraction. Finally, the biosensors were placed into Octet Kinetics Buffer for the dissociation phase for 300s. Analysis was performed using Data Analysis 12.0 software and curves were fitted using a 1:1 binding model.

[3] = molecular target: T2, canine IL-31 receptor complex (IL-31RA …); experiment: cell-based or functional assay; remark: listed apart in the source
[4] = molecular target: T2, canine IL-31 receptor complex (IL-31RA …); experiment: cell-based or functional assay; remark: listed apart in the source
[5] = molecular target: T1, Canine IL-31RA ECD-10His; experiment: BLI (Octet), biotin-labeled canine IL-31RA on SA biosensors
Method: as §1
Two of the top blocking antibodies: 51F8 and 218D9, had KDs of about 0.2 nM and about 0.07 nM respectively (see, Table 5B below).

[6] = molecular target: T1, Canine IL-31RA ECD-10His; experiment: ELISA on coated canine IL-31RA, anti-canine IgG Fc-HRP (Example 11), the unit is that of the x axis 'Ab Log Conc. (ng/mL)'
Method: 1. Coat 200 ng/well of IL-31RA on an immunoplate and incubate the plate at 4° C. overnight. [0257] 2. Wash the plate 3 times with phosphate buffered saline (PBS) containing 0.05% Tween 20 (PBST). […] 3. Block the plate with 0.5% bovine serum albumin (BSA) in PBS for 45-60 min at room temperature. [0259] 4. Wash the plate 3 times with PBST. [0260] 5. Three-fold dilute the caninized antibody in each column or row of dilution plate starting at 0.3 μg/mL. [0261] 6. Transfer the diluted caninized antibody into each column or row of the immunoplate, and incubate the plate for 45-60 min at room temperature. [0262] 7. Wash the plate 3 times with PBST. [0263] 8. Add 1:4000 diluted horseradish peroxidase labeled anti-canine IgG Fc into each well of the plate, and then incubate the plate for 45-60 min at room temperature. [0264] 9. Wash the plate 3 times with PBST. [0265] 10. Add 3,3′,5,5′-tetramethylbenzidine (TMB) Substrate into each well of the plate, and incubate the plate for 10 to 15 min at room temperature to develop the color. [0266] 11. Add 100 μL 1.5 M phosphoric acid into each well to stop the reaction. Read plate at 450 nm with 540 nm reference wavelength.
As depicted in FIGS. 7A-7E, the caninized antibodies were tested for their reactivity to canine IL-31RA.

[7] = molecular target: T1, Canine IL-31RA ECD-10His; experiment: BLI (Octet); end of the range tied to 85C10 by Table 2
Method: as §1

[8] = molecular target: T1, Canine IL-31RA ECD-10His; experiment: BLI (Octet); end of the range tied to 224G3 by Table 2
Method: as §1

IC50 (read off the curve): inhibition of IL-31 mediated STAT-3 phosphorylation in Ba/f3-OI cells [1] [µg/mL] | Kd [2] [nM] | koff [2] [s⁻¹] | kon [2] [M⁻¹ s⁻¹] | IC50, inhibition of IL-31 mediated STAT-3 phosphorylation in Ba/f3-OI cells [3] [nM] | IC50: inhibition of IL-31 mediated STAT-3 phosphorylation in Ba/f3-OI cells (AlphaLISA p-STAT3), the unit is that of the x axis 'Antibody Log Conc. (nM)' [4] [nM] | Kd [5] [nM] | koff [5] [s⁻¹] | kon [5] [M⁻¹ s⁻¹] | EC50 [6] [ng/mL] | Kd [7] [nM] | Kd [8] [pM] | Binder
~2 | 0.131 | 4.87e-05 | 370000 | – | – | – | – | – | – | – | – | 209G5 (antibody, V domains shown, Mouse monoclonal antibody from a hybridoma; also called mouse mAb 209G5) VH: EVQLQQSVAELVRPGASVKLSCTASGFNIKNTYMHWVKERPEQGLEWIGRIDPANGNSKYAPKFQGKATITTDTSSNTAYLQLSSLTSEDTAIYYCARYYYVSSHFDVWGTGTTVTVSS VL: SIVMTQTPKFLLVSAGDRVTITCKASQSVTNDVTWYQQKPGQSPKLLIYYASNRYTGVPDRFTGSGYGTDFTFTISTVQAEDLAVYFCQQDYSSPFTFGSGTKLEIK
– | – | – | – | ~230 | 226 | 0.528 | 0.000338 | 641000 | 4.29 | – | – | c218D9VH3VL2 (antibody, V domains shown, Caninized antibody; chains tied by name to c218D9VH3-cIgGBm and c218D9VL2-cCK; also called c218D9VH3L2) VH: EVTLQESGPGLVKPSQTLSLTCSFSGFSLSTFGRGVGWIRQRPGRGLEWMGHIWWDDDKYYNPALKSRLSITKDTAKNQFSLQLSSMTTEDTAVYYCARIAGGLRRAPYAMDSWGQGTLVTVSS VL: DIVMTQTPLSLSVSPGETASISCRASENIYSSLAWFRQKPGQSPQLLIYAATNLADGVPDRFSGSGSGTDFTLRISRVEADDTGVYYCQHFRDTPPTFGQGTKLEIKR
– | – | – | – | ~2.5 | 2.97 | 0.0416 | 2.75e-05 | 661000 | 3.22 | – | – | c218D9VH3VL3 (antibody, V domains shown, Caninized antibody; chains tied by name to c218D9VH3-cIgGBm and c218D9VL3-cCK; also called c218D9VH3L3) VH: EVTLQESGPGLVKPSQTLSLTCSFSGFSLSTFGRGVGWIRQRPGRGLEWMGHIWWDDDKYYNPALKSRLSITKDTAKNQFSLQLSSMTTEDTAVYYCARIAGGLRRAPYAMDSWGQGTLVTVSS VL: DIVMTQTPLSLSVSPGETASISCRASENIYSSLAWFRQKPGQSPQLLVYAATNLADGVPDRFSGSGSGTDYTLRISRVEADDTGVYYCQHFRDTPPTFGQGTKLEIKR
– | – | – | – | ~2.9 | 2.5 | 0.0447 | 2.69e-05 | 601000 | 3.58 | – | – | c218D9VH4VL3 (antibody, V domains shown, Caninized antibody; chains tied by name to c218D9VH4-cIgGBm and c218D9VL3-cCK; also called c218D9VH4L3) VH: EVTLQESGPGLVKPSQTLSLTCSFSGFSLSTFGRGVGWIRQRPGRGLEWMGHIWWDDDKYYNPALKSRLSITKDTAKNQVFLQLSSMTTEDTAVYYCARIAGGLRRAPYAMDSWGQGTLVTVSS VL: DIVMTQTPLSLSVSPGETASISCRASENIYSSLAWFRQKPGQSPQLLVYAATNLADGVPDRFSGSGSGTDYTLRISRVEADDTGVYYCQHFRDTPPTFGQGTKLEIKR
– | – | – | – | ~8.3 | 8.27 | 0.305 | 0.000165 | 541000 | 4.1 | – | – | c218D9VH4VL2 (antibody, V domains shown, Caninized antibody; chains tied by name to c218D9VH4-cIgGBm and c218D9VL2-cCK; also called c218D9VH4L2) VH: EVTLQESGPGLVKPSQTLSLTCSFSGFSLSTFGRGVGWIRQRPGRGLEWMGHIWWDDDKYYNPALKSRLSITKDTAKNQVFLQLSSMTTEDTAVYYCARIAGGLRRAPYAMDSWGQGTLVTVSS VL: DIVMTQTPLSLSVSPGETASISCRASENIYSSLAWFRQKPGQSPQLLIYAATNLADGVPDRFSGSGSGTDFTLRISRVEADDTGVYYCQHFRDTPPTFGQGTKLEIKR
~2 | 0.0698 | 4.63e-05 | 664000 | – | – | – | – | – | – | – | – | 218D9 (antibody, V domains shown, Mouse monoclonal antibody from a hybridoma; also called mouse mAb 218D9) VH: QVTLKESGPGILQPSQTLSLTCSFSGFSLSTFGRGVGWIRQPSGKGLDWLTHIWWDDDKYYNPALKSRLTISKDTSKNQVFLKIANVDTADTATYYCARIAGGLRRAPYAMDSWGQGTSVTVSS VL: DIQMTQSPASLSVSVGETVTITCRASENIYSSLAWYQQKQGKSPQLLVYAATNLADGVPSRFSGSGSGTQYSLKINSLQSEDSGNYYCQHFRDTPPTFGGGTKLEIK
– | 0.851 | 0.000363 | 427000 | – | – | – | – | – | – | 0.85 | – | 85C10 (antibody, V domains shown, Mouse monoclonal antibody from a hybridoma; also called mouse mAb 85C10) VH: EFQLQQSGPELVKPGASVKISCKASGYSFTDYSINWVKQSNGKSLEWIGVINPNYGTSSHNQKFKGKATMTVDQSSSTAYMQLNSLTSEDSAVYYCARALDDYYFYWYFDVWGIGTTVTVSS VL: DVVMTQTPLSLPVSLGDQASISCRSSQSLVHTNGNTYLHWYLQKPGQSPKLLIYKVSNRFSGVPDRFSGSGSGTDFTLKISRVEAEDLGVYFCSQTTHVPLTFGAGTKLELK
– | 0.000964 | 1.08e-06 | 1.12e+06 | – | – | – | – | – | – | – | 1 | 224G3 (antibody, V domains shown, Mouse monoclonal antibody from a hybridoma; also called mouse mAb 224G3) VH: EVQLVESGGDLVKPGGSLKLSCAASGFTFSSYGMSWVRQTPDKRLEWVATISNGGSYTYYPDSVKGRFTISRDNAKNTLYMQMSSLKSEDTAMYYCARNEPPDYWGQGTSVTVSS VL: QIVLTQSPAIMSASLGERVTMTCTASSSVGSSYLHWYQQKPGSSPKLWIYDTSNLASGVPVRFSGSGSGTSYSLTISSMEAEDAATYYCHQYHRSPYTFGGGTKLEIK
